Reference: US20240294650A1 (Alector, published 2024)
Residue numbers refer to the chain shown, from its start.

T1: Full Axl (ECD domain of human Axl) (human, UniProt P30530 26-451)
T1 construct: also called human Axl ECD
T1 sequence: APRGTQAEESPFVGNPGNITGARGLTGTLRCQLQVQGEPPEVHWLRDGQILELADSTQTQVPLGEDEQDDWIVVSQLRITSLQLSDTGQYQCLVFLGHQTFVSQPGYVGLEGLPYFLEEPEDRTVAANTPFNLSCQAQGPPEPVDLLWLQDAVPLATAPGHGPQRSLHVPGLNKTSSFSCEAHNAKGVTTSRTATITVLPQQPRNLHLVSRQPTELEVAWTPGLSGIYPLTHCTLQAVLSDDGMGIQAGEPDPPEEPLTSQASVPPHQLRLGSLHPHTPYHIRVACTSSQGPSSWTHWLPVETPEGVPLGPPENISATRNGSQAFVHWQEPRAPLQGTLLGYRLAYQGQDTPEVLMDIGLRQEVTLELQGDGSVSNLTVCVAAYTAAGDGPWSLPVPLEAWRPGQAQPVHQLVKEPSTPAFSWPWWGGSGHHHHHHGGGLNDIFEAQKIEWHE

T2: Recombinant human MerTK-human Fc Chimera protein (human, UniProt Q12866 26-499, limits assumed)
T2 construct: bought construct; also called MerTK-Fc (R&D systems, Cat #391-MR-100)
T2 sequence: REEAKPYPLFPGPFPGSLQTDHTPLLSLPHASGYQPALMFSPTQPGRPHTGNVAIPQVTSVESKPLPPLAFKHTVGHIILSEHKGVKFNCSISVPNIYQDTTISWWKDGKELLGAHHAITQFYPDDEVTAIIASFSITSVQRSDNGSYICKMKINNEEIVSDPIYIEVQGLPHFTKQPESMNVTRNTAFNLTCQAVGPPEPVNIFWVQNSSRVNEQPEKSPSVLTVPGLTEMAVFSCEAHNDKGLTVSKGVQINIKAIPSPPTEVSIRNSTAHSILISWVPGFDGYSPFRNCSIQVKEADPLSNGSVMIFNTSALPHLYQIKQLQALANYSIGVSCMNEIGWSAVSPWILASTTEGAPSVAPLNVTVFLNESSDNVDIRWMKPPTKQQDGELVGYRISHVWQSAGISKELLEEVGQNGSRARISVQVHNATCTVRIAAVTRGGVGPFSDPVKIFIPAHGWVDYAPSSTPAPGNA

T3: human MerTK (human, UniProt Q12866 21-999)
T3 sequence: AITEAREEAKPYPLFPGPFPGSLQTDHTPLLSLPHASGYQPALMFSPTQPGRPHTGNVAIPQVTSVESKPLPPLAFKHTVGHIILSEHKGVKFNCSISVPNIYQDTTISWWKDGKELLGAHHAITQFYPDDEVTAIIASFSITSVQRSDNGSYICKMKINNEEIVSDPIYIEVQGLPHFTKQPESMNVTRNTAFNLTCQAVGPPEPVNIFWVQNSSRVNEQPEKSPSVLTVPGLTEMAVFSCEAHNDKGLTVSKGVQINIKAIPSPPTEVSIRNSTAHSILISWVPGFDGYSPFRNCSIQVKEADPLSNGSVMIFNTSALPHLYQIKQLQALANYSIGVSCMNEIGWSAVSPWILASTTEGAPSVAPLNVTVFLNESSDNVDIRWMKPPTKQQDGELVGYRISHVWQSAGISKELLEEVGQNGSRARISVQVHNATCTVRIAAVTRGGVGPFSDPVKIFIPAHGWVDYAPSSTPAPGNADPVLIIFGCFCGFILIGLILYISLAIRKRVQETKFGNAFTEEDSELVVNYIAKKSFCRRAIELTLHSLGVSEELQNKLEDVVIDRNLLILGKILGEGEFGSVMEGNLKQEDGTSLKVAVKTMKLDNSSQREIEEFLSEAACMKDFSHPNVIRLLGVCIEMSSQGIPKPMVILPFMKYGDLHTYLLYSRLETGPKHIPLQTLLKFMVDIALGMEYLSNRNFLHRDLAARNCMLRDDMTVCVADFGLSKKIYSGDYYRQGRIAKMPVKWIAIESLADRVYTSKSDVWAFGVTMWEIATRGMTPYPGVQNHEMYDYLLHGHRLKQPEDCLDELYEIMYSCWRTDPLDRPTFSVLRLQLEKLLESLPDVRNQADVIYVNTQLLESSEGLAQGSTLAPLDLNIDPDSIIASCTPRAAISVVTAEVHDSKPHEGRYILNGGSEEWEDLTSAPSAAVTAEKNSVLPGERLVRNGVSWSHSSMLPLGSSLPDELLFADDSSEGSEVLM

B1: MTK-210 (antibody, human IgG1, V domains shown)
VH: QVQLQQSGPELVKPGASVKISCKASDYEFSRSWMNWVKQRPGKGLEWIGRIYPGDGDTNYNGKFKGKATLTADKSSNTAYMQLNSLTSEDSAVYFCARKGGYYYSISNYFDYWGQGTTLTVSS
VL: QIVLTQSPAIMSASPGVKVTMTCSASSSVSYMHWYQQKPGSSPRLLIYDTSNLASGVPVRFSGSGSGTSYSLTISRMEAEDAATYYCQQWSSYPPYTFGGGTKLEIK
B2: MTK-206 (antibody, human IgG1, V domains shown)
VH: QVQLQQSGAELARPGASVKMSCKASGYTFTSYTMHWVKQRPGQGLEWIGYINPSSGYIKNSQKFKDKATLTADKSSSTAYMQLSSLTSEDSAVYYCARTVYGYYGSSPDYWGQGTTLTVSS
VL: DIQMTQSPSSLSASLGERVSLTCRASQDIGSNLNWLQQEPDGTIKRLIYATSSLESGVPKRFSGSRSGSDYSLTISSLESEDFVDYYCLQYDSSPWTFGGGTKLEIK
B3: MTK-231 (antibody, human IgG1, V domains shown)
VH: DVQLQESGPGLVKPSQSLSLTCSVTGYSITSGYYWNWIRQFPGNKLEWMGYISYDGTYNYHPSLKNRISITRDTSKNQFFLTLNSVTTEDTATFYCTRGGGYWGQGTSVTVSS
VL: DVVMTQTPLSLPVSLGDQASISCRSSQSLVHSDGNTYLHWYLQKPGQSPKLLIYKVSNRFSGVPDRFSGSGSGTDFTLKISRLEAEDLGIYFCSQTTHIPLTFGSGTKLEIK
B4: MTK-202 (antibody, human IgG1, V domains shown)
VH: EVQLVESGGGLVKPGGSLKLSCAASGFTFSDFGMHWVRQVPEKGLEWVAFISGGSNTIYYTDTVKGRFTISRDNAKNTLFLQMTSLRSEDTAMYYCVRNGNSFAYWGQGTLVTVSA
VL: NIMMTQSPSSLAVSAGEKVTMNCKSSQSVLYSSNQKNYLAWYQQKPGQSPKLLIYWASTRESGVPDRFTGSGSGTDFTLTISNIQAEDLAIYYCHQYFFSWTFGGGTKLEIK
B5: MTK-204 (antibody, human IgG1, V domains shown)
VH: EVQLVESGGGLVKPGGSLKLSCAASGFTFSDYGMHWVRQAPEKGLEWVAYISSGTSTIYYEDTVKGRFTISRDNAKNTLFLQMTSLRSEDTAMYYCARGGLLFDYWGQGTTLTVSS
VL: B4 VL with N22S, Y55Q, G74E, S82R, N83S, I84V, I91V, F99S
B6: MTK-225 (antibody, human IgG1, V domains shown)
VH: EVQLQQSGPELVKPGASVKIFCKASGYTFTAYNMDWVKQSHGKSLEWIGDINPNNGGTIYNQKFKGKATLTVDKSSSTAYMELRSLTSEDTAVYYCARRRRYGNTYYWYFDVWGTGTTVTVSS
VL: DIQMTQSPASLSVSVGETVTITCRASENIYSSLAWYQQKQGKSPQLLVYAATNLADGVPSRFSGSGSGTQFYLKINGLQSEDFGSYYCQHFWGTSYTFGGGTKLEIK
B7: MTK-212 (antibody, human IgG1, V domains shown)
VH: QVQLQQSGPELVKPGASVKISCKASGYAFSSSWVNWVKQRPGKGLEWIGRIYPGDGDSNYNGNFKGKATLTADKSSNTAYLQLSSLTSEDSAVYFCARKSHFIYYTLDYWGQGTPVTVSS
VL: DIVMTQSHKFKSTSVGDRVSIACKASQDVGTSVAWYQQKPGKSPKLLIYWASSRHTGVPDRFTGSGSGTDFTLTISNVQSEDLTDYFCQQYSTYPYTFGGGTKLEIK
B8: MTK-221 (antibody, human IgG1, V domains shown)
VH: QVTLKESGPGMLQSSQTLSLTCSFSGFSLSTSGMGVSWIRQPSGKGLEWLAHIYWDDDKRYNTSLQSRLTISKDTSRNQVFLKITSVDTADTATYFCGRLGAYSAFPYYFDYWGQGTTLTVSS
VL: DIQMTQSPSSLSASLGGKVTITCKASQDIHKHIAWYQHKPGKGPRLLIHYTSTLQPGIPSRFSGSGSGRDYSFSISNLEPEDLATYYCLQYDNLWTFGGGTKLEIK

Legend:
[1] = molecular target: T1, Full Axl (ECD domain of human Axl); assay: SPR (data not shown)
How it was run: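 First, each purified antibody is immobilised in duplicate by amine coupling. Next, supernatants holding the chimera or deletion constructs, diluted 1:1 with BSA-containing (0.5 mg/mL) HBS-TE, are injected. Last, surfaces are stripped with 10 mM glycine pH2.0 before the next construct.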

[2] = molecular target: T2, Recombinant human MerTK-human Fc …; assay: blocking ELISA, Gas6-His on MerTK-Fc, Ab 66.6 nM, isotype=100%
Experimental: Briefly, rabbit anti-human IgG antibody (Jackson ImmunoResearch, Cat #309-005-008) was coated at 2 μg/ml onto high-protein binding plates at 4° C. overnight. After washing with 0.05% Tween20 in PBS three times, 5% BSA in PBS was added for 1 hour. Recombinant human MerTK-human Fe Chimera protein (R&D systems, Cat #391-MR-100) was added at 2 μg/ml for 1 hour and plates were washed before the addition of 40 μl of anti-MerTK hybridoma supernatants and 40 μl of His tag-conjugated recombinant Gas6 (R&D systems, Cat #885-GSB-050) at 3 μg/ml or His tag-conjugated recombinant ProS (R&D systems, Cat #9489-PS-100) at 20 μg/ml. After a further incubation for 1 hour, plates were washed and incubated for 1 hour with HRP-conjugated anti-6×His tagged antibody (Abcam, Cambridge, MA, Cat #ab1187). Plates were then washed and an HRP substrate, TMB, was added to develop the plates. The reaction was stopped by adding 50 μl 2N H₂SO₄ and the OD was measured using a spectrophotometer (BioTek).
Anti-MerTK antibodies were titrated to a final concentration from 66.6 nM to 4 pM and tested against anti-human MerTK antibody M6 (disclosed in WO2016/106221) or isotype control antibody.

human MerTK = molecular target: T3, human MerTK; assay: cell-based or functional assay

Binder	binding result [1]	Percent Gas6 ligand binding [2] [%]	EC50 (nM), pAKT in SK-MEL-5 cells (human MerTK) [nM]	Fold increase in PAKT over IgG control (human MerTK) [fold]
B1	no binding	114	15	3.3
B2	no binding	103	–	3.1
B3	no binding	116	0.65	3
B4	no binding	101	1.01	3
B5	no binding	121	–	3
B6	no binding	120	–	4.5
B7	no binding	122	96.9	3.3
B8	no binding	106	–	4.4
